{"source": "patent US20020157120A1", "about": "(University of California, published 2002)", "proteins": {"B1": {"name": "Discosoma red fluorescent protein, dsRed (other)", "chain": "MRSSKNVIKEFMRFKVRMEGTVNGHEFEIEGEGEGRPYEGHNTVKLKVTKGGPLPFAWDILSPQFQYGSKVYVKHPADIPDYKKLSFPEGFKWERVMNFEDGGVVTVTQDSSLQDGCFIYKVKFIGVNFPSDGPVMQKKTMGWEASTERLYPRDGVLKGEIHKALKLKDGGHYLVEFKSIYMAKKPVQLPGYYYVDSKLDITSHNEDYTIVEQYERTEGRHHLFL", "notes": "Wild-type dsRed (CLONTECH DNA) cloned into pRSETB, made in JM109(DE3) E. coli and purified on NiNTA-agarose; The entries describe self-association of dsRed subunits; also called red fluorescent protein (dsRed) from coral; not shown: N-terminal tag from vector pRSETB (protein purified by nickel chelate chromatography)"}}, "biological_target": "the molecule itself", "assay": "Self-association (oligomer dissociation), inferred from FCS translational diffusion at about 1 nM dsRed", "source_text": "Fluorescence was collected through the same objective, a dichroic mirror, and 525+/−50 nm (citrine) or 580+/−50 nm (dsRed) filters and focused by a 150-mm achromat into an optical fiber ([…]). The fluorescence signal was detected by a fiber-coupled avalanche photodiode (APD; SPCM-AQ-141-FC; EG & G, Salem, Mass.). The APD signal was processed by using a correlator card (ALV5000; ALV Laser, Germany), and correlation curves were fitted by using the following function (Schwille et al., supra, 2000):\nWithin experimental uncertainty, our estimated rotational time (i.e., protein volume) agrees with the tetramer hypothesis of dsRed configuration."}
{"protein": "B1", "values": [{"measurement": "Kd", "result": "≤ 1", "unit": "nM"}]}
